{"source": "patent US11549123B2", "about": "“Plant EPSP synthases and methods of use” (PIONEER HI-BRED INTERNATIONAL, INC., priority 2015, dated 2023)", "molecules": {"B1": {"name": "123-C1: maize EPSPS with A2R, A4W, K84R, L98C, G102A, I208L, K243E, E391P, D402G (protein)", "chain": "MRGWEEIVLQPIKEISGTVKLPGSKSLSNRILLLAALSEGTTVVDNLLNSEDVHYMLGALRTLGLSVEADKAAKRAVVVGCGGRFPVEDAKEEVQLFCGNAATAMRPLTAAVTAAGGNATYVLDGVPRMRERPIGDLVVGLKQLGADVDCFLGTDCPPVRVNGIGGLPGGKVKLSGSISSQYLSALLMAAPLALGDVEIEIIDKLISLPYVEMTLRLMERFGVKAEHSDSWDRFYIKGGQKYESPKNAYVEGDASSASYFLAGAAITGGTVTVEGCGTTSLQGDVKFAEVLEMMGAKVTWTETSVTVTGPPREPFGRKHLKAIDVNMNKMPDVAMTLAVVALFADGPTAIRDVASWRVKETERMVAIRTELTKLGASVEEGPDYCIITPPPKLNVTAIDTYGDHRMAMAFSLAACAEVPVTIRDPGCTRKTFPDYFDVLSTFVKN", "modifications": "maize clone 123-C1", "notes": "maize EPSPS with A2R, A4W, K84R, L98C, G102A, I208L, K243E, E391P, D402G"}, "B2": {"name": "Zea mays EPSPS variant V-G at positions 103-107 (Zea mays; P106G/T102V) (protein)", "chain": "MAGAEEIVLQPIKEISGTVKLPGSKSLSNRILLLAALSEGTTVVDNLLNSEDVHYMLGALRTLGLSVEADKAAKRAVVVGCGGKFPVEDAKEEVQLFLGNAGVAMRGLTAAVTAAGGNATYVLDGVPRMRERPIGDLVVGLKQLGADVDCFLGTDCPPVRVNGIGGLPGGKVKLSGSISSQYLSALLMAAPLALGDVEIEIIDKLISIPYVEMTLRLMERFGVKAEHSDSWDRFYIKGGQKYKSPKNAYVEGDASSASYFLAGAAITGGTVTVEGCGTTSLQGDVKFAEVLEMMGAKVTWTETSVTVTGPPREPFGRKHLKAIDVNMNKMPDVAMTLAVVALFADGPTAIRDVASWRVKETERMVAIRTELTKLGASVEEGPDYCIITPPEKLNVTAIDTYDDHRMAMAFSLAACAEVPVTIRDPGCTRKTFPDYFDVLSTFVKN"}, "B3": {"name": "Zea mays EPSPS variant L-T at positions 103-107 (Zea mays; P106T/T102L) (protein)", "chain": "B2 chain with V103L, G107T"}, "B4": {"name": "Zea mays EPSPS variant L-A at positions 103-107 (Zea mays; P106A/T102L) (protein)", "chain": "B2 chain with V103L, G107A"}, "B5": {"name": "Zea mays EPSPS variant S-N at positions 103-107 (Zea mays; P106N/T102S) (protein)", "chain": "B2 chain with V103S, G107N"}, "B6": {"name": "Zea mays EPSPS variant G-W at positions 103-107 (EPSPS-TGPW; T103G P107W) (Zea mays; P106W/T102G) (protein)", "chain": "B2 chain with V103G, G107W"}}, "key": {"[1]": {"tested_on": "maize EPSPS", "assay": "EPSPS reaction rates at 200 uM PEP and S3P, and at 30 uM substrates with 1 mM glyphosate", "type": "biochemical, Zea mays", "conditions": "Zea ma", "experimental": "(§1) EPSPS activity was determined by quantifying the phosphate generated from the EPSPS reaction. Release of inorganic phosphate was coupled to reaction with 2-amino-6-mercapto-7-methylpurine ribonucleoside, catalyzed by purine-nucleoside phosphorylase (M R Webb, Proc. Natl. Acad. Sci. 89:4884-4887, 1992). The absorbance change that occurs was monitored at 360 nm, where the extinction is 11,200 M^−1 cm^−1, with a Spectramax plate reader (Molecular Devices). To determine kinetic parameters, the varied substrate was present at seven concentrations (the eighth being the blank, containing no substrate) ranging from 4 to 400 uM and the unvaried substrate present at saturation. […] Reactions were monitored with a Spectramax plate reader. […] KI was then calculated from the following form of the Michaelis-Menten equation for competitive inhibition: KI=KM[I]/(KM app−KM) KM approximates the dissociation constant of the enzyme-substrate complex while kcat is the rate of conversion of substrate to product when the substrate concentration is saturating. kcat/KM is a widely accepted parameter for catalytic efficiency when substrate concentration is low (˜KM). […] The parameter kcat/KM×KI is used to quantify both catalytic efficiency and insensitivity and thus the overall fitness of the enzyme. […]"}, "[2]": {"tested_on": "Glycine max (93Y21) hairy root", "assay": "Hairy root growth from transformed soybean cotyledons with or without 25 uM glyphosate", "type": "cell-based", "conditions": "constructs containing the UBQ10 promoter"}, "[3]": {"substrate": "C=C(OP(=O)(O)O)C(=O)O", "assay": "EPSPS substrate saturation kinetics, maize variant 103V 107G", "type": "biochemical, Zea mays", "conditions": "other: PEP varied; pH 7.0", "experimental": "as §1"}, "[4]": {"substrate": "C=C(OP(=O)(O)O)C(=O)O", "assay": "EPSPS substrate saturation kinetics, maize variant 103L 107T", "type": "biochemical, Zea mays", "conditions": "other: PEP varied; pH 7.0", "experimental": "as §1"}, "[5]": {"substrate": "C=C(OP(=O)(O)O)C(=O)O", "assay": "EPSPS substrate saturation kinetics, maize variant 103L 107A", "type": "biochemical, Zea mays", "conditions": "other: PEP varied; pH 7.0", "experimental": "as §1"}, "[6]": {"substrate": "C=C(OP(=O)(O)O)C(=O)O", "assay": "EPSPS substrate saturation kinetics, maize variant 103S 107N", "type": "biochemical, Zea mays", "conditions": "other: PEP varied; pH 7.0", "experimental": "as §1"}, "[7]": {"substrate": "C=C(OP(=O)(O)O)C(=O)O", "assay": "EPSPS substrate saturation kinetics, maize variant 103G 107W (EPSPS-TGPW)", "type": "biochemical", "conditions": "other: PEP varied; pH 7.0", "experimental": "as §1"}}, "note": "Changes are numbered by the printed parent chain. Numbers in names are those of the source.", "data": [{"molecule": "B1", "values": [{"measurement": "Reaction rate, 200 uM, no glyph", "setting": "[1]; PEP and S3P both at 200 uM, no glyphosate", "result": 516}, {"measurement": "Reaction rate, 30 uM, 1 mM glyph", "setting": "[1]; substrates at 30 uM, glyphosate at 1 mM", "result": 94.5}, {"measurement": "hairy root growth in the presence of 25 uM glyphosate", "setting": "[2]", "result": "generated hairy roots"}]}, {"molecule": "B2", "values": [{"measurement": "Km", "setting": "[3]", "result": 133, "unit": "µM"}]}, {"molecule": "B3", "values": [{"measurement": "Km", "setting": "[4]", "result": 45.8, "unit": "µM"}]}, {"molecule": "B4", "values": [{"measurement": "Km", "setting": "[5]", "result": 50.6, "unit": "µM"}]}, {"molecule": "B5", "values": [{"measurement": "Km", "setting": "[6]", "result": 38.1, "unit": "µM"}]}, {"molecule": "B6", "values": [{"measurement": "Km", "setting": "[7]", "result": 82.2, "unit": "µM"}]}]}
